The results in this text go back to IntAct's records for PubMed 18239685.

The target of the assay is taxb1_human TAX1BP1 (UniProt Q86VP1).

As to “Polyubiquitin-C (Homo sapiens) (from UniProt P0CG48) I44A”, the “effect of a mutation on the interaction” value was “decreasing interaction”.
